Laboratory results published in paper PMC3409459, “Absorption, distribution, metabolism and excretion of peginesatide, a novel erythropoiesis-stimulating agent, in rats” (Xenobiotica; the Fate of Foreign Compounds in Biological …, 2011).
Read-outs that look alike come from different tables or passages of the source.

Experiments:
[1] = Plasma pharmacokinetics of unlabeled peginesatide after a single IV dose (ELISA); type: in vivo, male Sprague-Dawley rats; settings: for time for which plasma concentrations were quantifiable: LLOQ 40 ng/mL; for AUC0–t / CL / t½ / Cmax: plasma, mean (SD), n=3; for Cmax: value at 0.25 h
Procedure: Plasma samples were analyzed for peginesatide concentration using a competition enzyme linked immunosorbent assay (ELISA) as previously described ([Fan et al. 2006]). The capture anti-peginesatide antibody was a high affinity polyclonal antibody preparation directed against the peptidic part of the molecule so the assay detects mono- and di-PEG-conjugated peptide as well as free peptide. The lower limit of quantitation was 40 ng-mL^1, the intra assay precision (% coefficient of variation) was 5-10% and the intra assay accuracy (% bias) was 1.9-5.7%.
The PK of peginesatide was assessed in male Sprague-Dawley rats following the administration of unlabeled and radiolabeled test article. The linearity of the PK profile was evaluated in rats (n = 3/group) administered a single IV dose of peginesatide at 0.1, 0.5, or 5 mg·kg^−1. Blood samples were collected predose and 0.25,1, 6, and 24h, and 2,3, 5, 7,10,14,17, 21, 24, and 28 days following dosing. Samples were analyzed by ELISA.
Noncompartmental PK parameters for peginesatide and metabolites were generated using WinNonlin ver. 4.0, Pharsight Corporation (Mountain View, CA). The maximum plasma concentration (Cmax) and their times of occurrence (tmax) were obtained directly from the mean plasma concentration vs. time profiles. The areas under the plasma concentration-time curves […] were estimated by the linear trapezoidal rule - by adding all the area portions under the curve from time zero to the time of the last observed plasma concentration (tn). Elimination rate constants (kz) were estimated by fitting a linear regression of log mean concentration against time data in the terminal exponential phase (at least 3 data points). Apparent terminal half-life (t1/2) was calculated as In2/λz. The AUC0-inf was calculated as the sum of AUC0-t and Cobs/λz, where Cobs, was the actual concentration at the time of the last quantifiable concentration. The plasma clearance (CL) for peginesatide was estimated as the ratio of dose/ AUC0-inf. The mean residence time (MRT) was calculated as the ratio of AUMC0-inf/AUC0-inf, where AUMC0-inf was the area under the first moment curve from the time zero to infinity. The volume of distribution at steady state (Vss) was estimated as CL x MRT.

[2] = Radioactivity in plasma, skin and eyes of pigmented vs albino rats (affinity for melanin); type: in vivo, male Long Evans (pigmented) rats; settings: single IV 5 mg·kg^−1 [^14C]-peginesatide; through 60 days; LSC; n=3 per time point
Procedure: Male Sprague-Dawley (albino) rats (n = 21; three per time point) were administered a single IV dose of 5 mg·kg^−1 [^14C]-peginesatide (27.5 μCi/kg) and tissue concentrations of radioactivity determined at 0.25, 6, and 24 h, and 7,14,30 and 60 days following dosing. Similarly, male Long Evans (pigmented) rats (n = 21; three per time point) were administered a single IV dose of 5 mg-kg^−1 [^14C]-peginesatide and plasma, skin, and eye concentrations of radioactivity were measured at the various time points through 60 days after dosing. At each time point, blood was collected, the animals sacrificed, and tissues excised. Tissues collected from the Sprague-Dawley rats included blood, plasma, adrenals, bone marrow, brain, eyes, fat, femur, Harderian glands, heart, hypophysis, intestine, kidneys, lungs, liver, pancreas, skeletal muscle, skin, spinal cord, spleen, stomach, submaxillary glands, testes, thymus, thyroid gland, and urinary bladder. Plasma, eyes, non-pigmented skin, and pigmented skin were collected from Long Evans rats. All tissue samples were measured for radioactivity by LSC following combustion. […] The concentration of radioactivity in the blood, plasma, and tissues was calculated and expressed as ug equiv·g^-1 or mLbased on the LSC counts and the specific activity of the dosing solution.

[3] = Quantitative whole body autoradiography (QWBA) tissue distribution; type: in vivo, male Sprague-Dawley rats; settings: for the radiolabel distribution and QWBA studies
Procedure: Tissue distribution of radioactivity was assessed by quantitative whole-body autoradiography (QWBA) in addition to determination of radioactivity tissue levels by LSC. At various time points following the administration of the desired QWBA target dose of 100 uCi/kg [^14C]-peginesatide, equating to a 17mg/kg dose of peginesatide, the rats were anesthetized with isoflurane and blood (−3-4 mL) was collected via cardiac puncture. Anesthetized rats were sacrificed by immersion in a hexane dryicebath. Carcasseswere embedded in 2% carboxymethylceilulose over solid CO2 to ensure the block was retained frozen, and then stored at −20°C until sectioning. In addition, ^14C radioactivity standards were embedded with each carcass to provide a context for quantification and for quality control purposes.
Samples were sectioned onto adhesive tape (Nakagawa NA-70 MAG, Japan) at five levels of interest in the sagittal plane, with all major tissues, organs, and biological fluids represented. […] To quantitate radioactivity in tissues, a calibration standard curve was constructed using American Radiolabeled Chemicals, Inc ARC 146 standards. The autoradiographic image data for the calibration standards and specified tissues, organs, and fluids were quantified using Imaging Research Inc. AIS software. […]

[4] = In vivo metabolite profiling, plasma and tissues at 14 days; set-up: species or system male Sprague-Dawley rats; settings: single IV 5 mg/kg [^14C]-peginesatide; HPLC fractions/LSC; n = 3
[5] = ref Im et al. 2010, cited from earlier work
Source text: The totality of the metabolism data is consistent with in vitro studies conducted in liver and kidney micro-somes and S9 fractions from rats, monkeys, and human donors ([Im et al. 2010]).

Q: With Peginesatide as the substance, how does the “time for which plasma concentrations were quantifiable” value ([1]; 0.1 mg·kg^−1 IV) read?
A: 3 days

Q: And the “AUC0–t” value ([1]; 0.1 mg·kg^−1 IV)?
A: 60.3 (4.71) μg·h/mL

Q: And the CL ([1]; 0.1 mg·kg^−1 IV)?
A: 1.65 (0.13) mL/h/kg

Q: What about the t½ ([1]; 0.1 mg·kg^−1 IV) of the same substance?
A: 17.5 (0.3) h

Q: And the Cmax ([1]; 0.1 mg·kg^−1 IV)?
A: 2.56 (0.162) μg/mL

Q: What about the “AUC0–t” value ([1]; 0.5 mg·kg^−1 IV) of the same substance?
A: 388 (48.8) μg·h/mL

Q: What about the CL ([1]; 0.5 mg·kg^−1 IV) of the same substance?
A: 1.29 (0.18) mL/h/kg

Q: And the t½ ([1]; 0.5 mg·kg^−1 IV)?
A: 19.7 (2.6) h

Q: What about the Cmax ([1]; 0.5 mg·kg^−1 IV) of the same substance?
A: 13.5 (1.40) μg/mL

Q: What about the “time for which plasma concentrations were quantifiable” value ([1]; 5 mg·kg^−1 IV) of the same substance?
A: up to 7 days

Q: And the “AUC0–t” value ([1]; 5 mg·kg^−1 IV)?
A: 5405 (327) μg·h/mL

Q: What about the CL ([1]; 5 mg·kg^−1 IV) of the same substance?
A: 0.92 (0.06) mL/h/kg

Q: What about the t½ ([1]; 5 mg·kg^−1 IV) of the same substance?
A: 31.6 (3.4) h

Q: And the Cmax ([1]; 5 mg·kg^−1 IV)?
A: 137 (6.19) μg/mL

Q: What about the “association with melanin (kinetics in plasma, skin and eyes of pigmented vs non-pigmented rats)” value [2] of the same substance?
A: neither peginesatide nor the other radioactive components associated with melanin

Q: And the “bone marrow to bone ratios” value [3]?
A: 11-25

Q: What about the “Day 14 concentration, Kidneys” value [4] of the same substance?
A: 2.64 μg equiv·g^−1 or mL

Q: What about the “metabolites after incubation with microsomes (metabolic stability in vitro)” value (shortened to “metabolites after incubation”) ([5]; human donor liver and kidney microsomes and S9 fractions) of the same substance?
A: no metabolites were observed

Q: What about the “metabolites after incubation” value ([5]; monkey liver and kidney microsomes and S9 fractions) of the same substance?
A: no metabolites were observed

Q: What about the “metabolites after incubation” value ([5]; rat liver and kidney microsomes and S9 fractions) of the same substance?
A: no metabolites were observed
